Measurements published in the supplement of paper PMC10126150.
± gives the standard deviation of the averaged measurements.

Test system: ATP
Assay: switch fluorescence ratio, 500 uM ATP over buffer (Cy3 cluster intensity, sum of 5 cycles each) (fold (ratio)); higher = stronger signal-on switching upon ATP binding; sequences stand for … in TCGTCGGCAGCGTCAGATGTGTATAAGAGACAGTTTTTTTTTTTTTTTTTTTTTTTTT…TC
Settings: aptamer strand: ATP DNA aptamer (quencher-CACCTGGGGGAGTATTGCGGAGGAAGG + anchor), 100 nM annealed; ATP concentration: 500 uM
In short: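 Cy3-labelled switching-strand clusters on a modified Illumina MiSeq flow-cell were annealed to 100 nM quencher-labelled ATP aptamer, imaged in selection buffer, then imaged after 15 min with 500 uM ATP at 22 °C. Five buffer/ATP cycles ran, with NaOH stripping and re-annealing between them. The fluorescence ratio is summed target-cycle over summed buffer-cycle Cy3 intensity per cluster, averaged per switch-domain sequence. Clusters outside 100-1000 RFU were excluded.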
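Note: ATP exposure 15 min at 22 °C before imaging.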

TTAAGGACGT
switch fluorescence ratio: 0.984 ± 0.016

TTAAGGAGCG
switch fluorescence ratio: 1.04 ± 0.016

TTAAGGCAA
switch fluorescence ratio: 1.125 ± 0.0087

TTAAGGCGTT
switch fluorescence ratio: 0.9791 ± 0.0071

TTAAGGCTAT
switch fluorescence ratio: 1.009 ± 0.0065

TTAAGGGAAT
switch fluorescence ratio: 1 ± 0.011

TTAAGGGACC
switch fluorescence ratio: 1.022 ± 0.0089

TTAAGGGACG
switch fluorescence ratio: 0.996 ± 0.11

TTAAGGGATC
switch fluorescence ratio: 0.957 ± 0.038

TTAAGGGATG
switch fluorescence ratio: 1.03 ± 0.043

TTAAGGGATT
switch fluorescence ratio: 0.993 ± 0.032

TTAAGGGCAA
switch fluorescence ratio: 1.06 ± 0.013

TTAAGGGGCT
switch fluorescence ratio: 1.01 ± 0.018

TTAAGGGTCC
switch fluorescence ratio: 0.984 ± 0.061

TTAAGGTTGC
switch fluorescence ratio: 0.989 ± 0.019

TTAAGTAAGG
switch fluorescence ratio: 1.03 ± 0.016

TTAAGTACGG
switch fluorescence ratio: 1.3 ± 0.016

TTAAGTAGGA
switch fluorescence ratio: 1 ± 0.017

TTAAGTAGTA
switch fluorescence ratio: 0.9679 ± 0.0025

TTAAGTCAGT
switch fluorescence ratio: 0.9717 ± 0.005

TTAAGTGAAT
switch fluorescence ratio: 0.979 ± 0.066

TTAAGTGAC
switch fluorescence ratio: 1.06 ± 0.028

TTAAGTGCTC
switch fluorescence ratio: 0.983 ± 0.031

TTAAGTGGGG
switch fluorescence ratio: 1.02 ± 0.011

TTAAGTGGTG
switch fluorescence ratio: 1.01 ± 0.017

TTAAGTGTAA
switch fluorescence ratio: 0.9697 ± 0.0036

TTAAGTTGAT
switch fluorescence ratio: 0.988 ± 0.033

TTAAGTTTAC
switch fluorescence ratio: 1.01 ± 0.038

TTAATAAAAA
switch fluorescence ratio: 0.985 ± 0.028

TTAATAAGGG
switch fluorescence ratio: 1 ± 0.024

TTAATACTGT
switch fluorescence ratio: 1.03 ± 0.016

TTAATAGTGG
switch fluorescence ratio: 1.03 ± 0.073

TTAATAGTGT
switch fluorescence ratio: 1 ± 0.013

TTAATATTGT
switch fluorescence ratio: 1.029 ± 0.0062

TTAATCCCCC
switch fluorescence ratio: 1.04 ± 0.042

TTAATCCCGT
switch fluorescence ratio: 1.04 ± 0.048

TTAATCGTGC
switch fluorescence ratio: 0.98 ± 0.043

TTAATCTGAG
switch fluorescence ratio: 1.02 ± 0.012

TTAATGCTAT
switch fluorescence ratio: 0.9836 ± 0.0043

TTAATGGGGC
switch fluorescence ratio: 1.01 ± 0.061

TTAATGGGGT
switch fluorescence ratio: 1 ± 0.039

TTAATGGTTA
switch fluorescence ratio: 1.02 ± 0.029

TTAATGTTGT
switch fluorescence ratio: 1 ± 0.035

TTAATTCATG
switch fluorescence ratio: 1.01 ± 0.017

TTAATTGGGG
switch fluorescence ratio: 1.06 ± 0.1

TTAATTTATC
switch fluorescence ratio: 0.9982 ± 0.0026

TTAATTTGGT
switch fluorescence ratio: 0.971 ± 0.03

TTACAAGGGC
switch fluorescence ratio: 1.013 ± 0.0087

TTACAAGTTT
switch fluorescence ratio: 1.14 ± 0.19

TTACACAGGT
switch fluorescence ratio: 1.12 ± 0.067

TTACAGCTAG
switch fluorescence ratio: 1.01 ± 0.056

TTACAGGGG
switch fluorescence ratio: 1.18 ± 0.027

TTACAGGTTC
switch fluorescence ratio: 1.031 ± 0.0019

TTACAGTTCA
switch fluorescence ratio: 1.026 ± 0.0058

TTACATGTTG
switch fluorescence ratio: 1.04 ± 0.04

TTACCATTAG
switch fluorescence ratio: 0.965 ± 0.011

TTACCCCGTG
switch fluorescence ratio: 1.13 ± 0.022

TTACCGGGCA
switch fluorescence ratio: 1.033 ± 0.0093

TTACCGGGCT
switch fluorescence ratio: 1.051 ± 0.004

TTACCTTTCT
switch fluorescence ratio: 1.64 ± 0.64

TTACGAAAAG
switch fluorescence ratio: 1.08 ± 0.14

TTACGAAACG
switch fluorescence ratio: 1.08 ± 0.045

TTACGAAAGA
switch fluorescence ratio: 1.07 ± 0.032

TTACGATGTG
switch fluorescence ratio: 1.018 ± 0.0091

TTACGGATTC
switch fluorescence ratio: 1.39 ± 0.5

TTACGGGAAT
switch fluorescence ratio: 1.08 ± 0.1

TTACGGGGGA
switch fluorescence ratio: 1.03 ± 0.072

TTACGGGTAT
switch fluorescence ratio: 1.01 ± 0.039

TTACGGGTGC
switch fluorescence ratio: 1.19 ± 0.033

TTACGGTATA
switch fluorescence ratio: 1.17 ± 0.038

TTACGTAGAT
switch fluorescence ratio: 1.12 ± 0.077

TTACGTGCTG
switch fluorescence ratio: 0.9806 ± 0.0083

TTACGTGGTT
switch fluorescence ratio: 1.07 ± 0.026

TTACTAAGGG
switch fluorescence ratio: 1.04 ± 0.04

TTACTAGATG
switch fluorescence ratio: 1.02 ± 0.021

TTACTATGTA
switch fluorescence ratio: 1.02 ± 0.019

TTACTGAGGT
switch fluorescence ratio: 0.992 ± 0.017

TTACTGATCG
switch fluorescence ratio: 1.025 ± 0.0073

TTACTGCGGT
switch fluorescence ratio: 1.014 ± 0.0034

TTACTGCTCG
switch fluorescence ratio: 1.01 ± 0.03

TTACTGTGTT
switch fluorescence ratio: 1 ± 0.034

TTACTTAGGG
switch fluorescence ratio: 1.14 ± 0.17

TTACTTATTT
switch fluorescence ratio: 1.04 ± 0.035

TTACTTCATA
switch fluorescence ratio: 1.021 ± 0.0045

TTACTTGAAT
switch fluorescence ratio: 0.969 ± 0.039

TTACTTGGGA
switch fluorescence ratio: 1 ± 0.012

TTACTTTATT
switch fluorescence ratio: 1.05 ± 0.053

TTACTTTTAC
switch fluorescence ratio: 1.13 ± 0.14

TTACTTTTGC
switch fluorescence ratio: 1.01 ± 0.065

TTAGAAAAGG
switch fluorescence ratio: 1 ± 0.032

TTAGAACACA
switch fluorescence ratio: 0.983 ± 0.0063

TTAGAAGGGA
switch fluorescence ratio: 1.01 ± 0.056

TTAGACGTTC
switch fluorescence ratio: 0.99809 ± 0.00032

TTAGAGATTC
switch fluorescence ratio: 0.961 ± 0.031

TTAGAGCTGG
switch fluorescence ratio: 1.01 ± 0.027

TTAGAGCTTC
switch fluorescence ratio: 1.01 ± 0.038

TTAGAGGATT
switch fluorescence ratio: 1.004 ± 0.007

TTAGAGGGA
switch fluorescence ratio: 1 ± 0.047

TTAGAGGGGA
switch fluorescence ratio: 0.985 ± 0.031

TTAGAGGGTA
switch fluorescence ratio: 0.9736 ± 0.0085

TTAGAGGGTC
switch fluorescence ratio: 0.9952 ± 0.0013

TTAGATCATG
switch fluorescence ratio: 1.01 ± 0.023

TTAGATGGTG
switch fluorescence ratio: 1.02 ± 0.033

TTAGATTCGG
switch fluorescence ratio: 0.997 ± 0.039

TTAGATTGCA
switch fluorescence ratio: 1.001 ± 0.0083

TTAGCAAATA
switch fluorescence ratio: 1.155 ± 0.0099

TTAGCAGGTG
switch fluorescence ratio: 2.78 ± 0.1

TTAGCATCTA
switch fluorescence ratio: 0.999 ± 0.018

TTAGCCACGC
switch fluorescence ratio: 0.9902 ± 0.0029

TTAGCGAGTT
switch fluorescence ratio: 0.979 ± 0.014

TTAGCGCTGG
switch fluorescence ratio: 1.01 ± 0.015

TTAGCGGCAG
switch fluorescence ratio: 0.9883 ± 0.0034

TTAGCGGTAT
switch fluorescence ratio: 1.08 ± 0.087

TTAGCGGTGT
switch fluorescence ratio: 1.07 ± 0.14

TTAGCGTGCG
switch fluorescence ratio: 0.953 ± 0.054

TTAGCTGCGG
switch fluorescence ratio: 0.9951 ± 0.0042

TTAGCTGGCA
switch fluorescence ratio: 1 ± 0.027

TTAGGAAAGG
switch fluorescence ratio: 1.06 ± 0.12

TTAGGAAAGT
switch fluorescence ratio: 0.9873 ± 0.0075

TTAGGACGCT
switch fluorescence ratio: 1.03 ± 0.036

TTAGGACTTT
switch fluorescence ratio: 0.975 ± 0.037

TTAGGAGAAA
switch fluorescence ratio: 1.03 ± 0.053

TTAGGATATA
switch fluorescence ratio: 1 ± 0.046

TTAGGATG
switch fluorescence ratio: 1.01 ± 0.0092

TTAGGCCAGG
switch fluorescence ratio: 1.05 ± 0.017

TTAGGGAAAA
switch fluorescence ratio: 0.983 ± 0.038

TTAGGGAATT
switch fluorescence ratio: 0.989 ± 0.046

TTAGGGGACG
switch fluorescence ratio: 0.981 ± 0.04

TTAGGGGATT
switch fluorescence ratio: 1.01 ± 0.027

TTAGGGTCGG
switch fluorescence ratio: 1 ± 0.036

TTAGGGTGGT
switch fluorescence ratio: 0.99 ± 0.018

TTAGGGTTGT
switch fluorescence ratio: 1 ± 0.023

TTAGGTGCGT
switch fluorescence ratio: 1.08 ± 0.028

TTAGGTGGGC
switch fluorescence ratio: 1.08 ± 0.021

TTAGGTTATT
switch fluorescence ratio: 0.9786 ± 0.0027

TTAGGTTGCA
switch fluorescence ratio: 0.9809 ± 0.0092

TTAGTAAGGC
switch fluorescence ratio: 1.22 ± 0.2

TTAGTAATTC
switch fluorescence ratio: 1.12 ± 0.15

TTAGTAGATT
switch fluorescence ratio: 0.991 ± 0.036

TTAGTATTGG
switch fluorescence ratio: 1.02 ± 0.019

TTAGTCCGTG
switch fluorescence ratio: 1.01 ± 0.036

TTAGTGAGGG
switch fluorescence ratio: 0.99 ± 0.042

TTAGTGGACT
switch fluorescence ratio: 1.02 ± 0.016

TTAGTGGCCC
switch fluorescence ratio: 0.99 ± 0.016

TTAGTGGCTT
switch fluorescence ratio: 0.994 ± 0.035

TTAGTGGGAG
switch fluorescence ratio: 0.966 ± 0.033

TTAGTGTGTG
switch fluorescence ratio: 0.994 ± 0.011

TTAGTTATTT
switch fluorescence ratio: 0.999 ± 0.035

TTAGTTCCTT
switch fluorescence ratio: 1.01 ± 0.024

TTAGTTGAGG
switch fluorescence ratio: 0.987 ± 0.05

TTAGTTGGAC
switch fluorescence ratio: 1.03 ± 0.038

TTAGTTGGGC
switch fluorescence ratio: 1.01 ± 0.069

TTAGTTTAAG
switch fluorescence ratio: 0.999 ± 0.017

TTAGTTTAGG
switch fluorescence ratio: 0.9824 ± 0.0096

TTAGTTTCAG
switch fluorescence ratio: 1.012 ± 0.0033

TTAGTTTGCA
switch fluorescence ratio: 1.02 ± 0.022

TTAGTTTGCT
switch fluorescence ratio: 1.01 ± 0.019

TTAGTTTTGG
switch fluorescence ratio: 1.04 ± 0.046

TTATAAAAGT
switch fluorescence ratio: 0.962 ± 0.011

TTATAAATAT
switch fluorescence ratio: 1.08 ± 0.044

TTATAAGCTT
switch fluorescence ratio: 0.997 ± 0.021

TTATAAGGTT
switch fluorescence ratio: 1.02 ± 0.023

TTATAATAG
switch fluorescence ratio: 1.039 ± 0.0073

TTATAATCCG
switch fluorescence ratio: 0.988 ± 0.031

TTATAATGGC
switch fluorescence ratio: 1.02 ± 0.08

TTATACATGG
switch fluorescence ratio: 1.07 ± 0.0024

TTATACGGAA
switch fluorescence ratio: 1.11 ± 0.057

TTATACGGAG
switch fluorescence ratio: 1.01 ± 0.025

TTATACTCTT
switch fluorescence ratio: 1.01 ± 0.026

TTATAGAATG
switch fluorescence ratio: 0.985 ± 0.038

TTATAGACAG
switch fluorescence ratio: 0.997 ± 0.034

TTATAGCCCA
switch fluorescence ratio: 1.0151 ± 0.00025

TTATAGCCTT
switch fluorescence ratio: 1.04 ± 0.046

TTATAGGAAC
switch fluorescence ratio: 1.02 ± 0.013

TTATAGGGAG
switch fluorescence ratio: 0.97261 ± 0.00039

TTATAGGTTG
switch fluorescence ratio: 0.984 ± 0.02

TTATAGGTTT
switch fluorescence ratio: 1 ± 0.019

TTATAGTCGT
switch fluorescence ratio: 1 ± 0.015

TTATAGTGGG
switch fluorescence ratio: 1 ± 0.022

TTATAGTTAT
switch fluorescence ratio: 1.001 ± 0.0029

TTATATTAAG
switch fluorescence ratio: 1.01 ± 0.031

TTATATTAGC
switch fluorescence ratio: 1 ± 0.054

TTATATTAGT
switch fluorescence ratio: 0.9919 ± 0.0056

TTATATTCTT
switch fluorescence ratio: 0.9964 ± 0.0042

TTATCACTCG
switch fluorescence ratio: 1.01 ± 0.0054

TTATCGAGAA
switch fluorescence ratio: 0.9879 ± 0.0024

TTATCGCTTG
switch fluorescence ratio: 0.9974 ± 0.003

TTATCGGGG
switch fluorescence ratio: 0.942 ± 0.053

TTATCTAAGT
switch fluorescence ratio: 1 ± 0.036

TTATCTAGTG
switch fluorescence ratio: 0.9894 ± 0.0054

TTATCTGGAA
switch fluorescence ratio: 1.06 ± 0.055

TTATCTGTTT
switch fluorescence ratio: 1.02 ± 0.028

TTATCTTAAT
switch fluorescence ratio: 1.01 ± 0.015

TTATCTTACA
switch fluorescence ratio: 0.996 ± 0.059

TTATGAAAGC
switch fluorescence ratio: 1.02 ± 0.042

TTATGAAGAT
switch fluorescence ratio: 0.963 ± 0.029

TTATGAGGCT
switch fluorescence ratio: 1.01 ± 0.013

TTATGATGGT
switch fluorescence ratio: 0.992 ± 0.018

TTATGCAAAG
switch fluorescence ratio: 1.1 ± 0.15

TTATGCATCG
switch fluorescence ratio: 0.9768 ± 0.0047
